# Test results from patent US20180282410A1 (Hoffmann-La Roche, published 2018).
# T1: murine (mu) Robo 4 ECD-PreS-Avi-His (mouse)
# T1 construct: also called recombinant murine Robo 4; murine Robo 4
# T1 chain: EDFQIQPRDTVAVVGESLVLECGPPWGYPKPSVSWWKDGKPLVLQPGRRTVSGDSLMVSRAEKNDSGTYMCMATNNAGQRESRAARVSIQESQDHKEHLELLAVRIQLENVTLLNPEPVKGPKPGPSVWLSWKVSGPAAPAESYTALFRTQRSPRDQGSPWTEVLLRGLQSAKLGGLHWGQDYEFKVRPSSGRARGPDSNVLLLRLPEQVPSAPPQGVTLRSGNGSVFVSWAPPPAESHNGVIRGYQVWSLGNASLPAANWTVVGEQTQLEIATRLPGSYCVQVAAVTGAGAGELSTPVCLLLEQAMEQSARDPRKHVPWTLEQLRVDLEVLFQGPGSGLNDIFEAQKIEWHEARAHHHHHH
# B1: 7G2 anti-Robo 4 IgG (antibody, V domains shown)
# VH: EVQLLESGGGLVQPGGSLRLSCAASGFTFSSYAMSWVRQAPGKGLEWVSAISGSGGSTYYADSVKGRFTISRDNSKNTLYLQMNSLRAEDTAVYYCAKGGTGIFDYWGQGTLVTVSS
# VL: EIVLTQSPGTLSLSPGERATLSCRASQSVSSSYLAWYQQKPGQAPRLLIYGASSRATGIPDRFSGSGSGTDFTLTISRLEPEDFAVYYCQQGQLPPRTFGQGTKVEIK
# notes: also called 7G2 IgG
# Target: T1, murine (mu) Robo 4 ECD-PreS-Avi-His
# Assay: SPR Biacore T100, IgG captured via anti-human Fab, antigen as analyte
# Experimental: All surface plasmon resonance (SPR) experiments are performed on a Biacore T100 at 25° C. with HBS-EP as running buffer (0.01 M HEPES pH 7.4, 0.15 M NaCl, 3 mM EDTA, 0.005% Surfactant P20 (Biacore)).
# Anti Robo 4 antibodies were captured for 60 s at 50 nM. Recombinant human, murine and cynomolgus Robo 4 were passed at a concentration range from 0.46-1000 nM with a flow of 30 μl/min through the flow cells over 90 s. The dissociation was monitored for 120 s. Bulk refractive index differences were corrected for by subtracting the response obtained on a reference flow cell. Here, the antigens were flown over a surface with immobilized anti-human Fab specific antibody on which HBS-EP has been injected rather than the antibodies.
# Kinetic constants were derived using the Biacore T100 Evaluation Software (vAA, Biacore), to fit rate equations for 1:1 Langmuir binding by numerical integration.
binder,measurement,value
B1,binding result,no binding (tested: antigen 0.46-1000 nM)
